The labels stand for the following.
B1: ATL3 (parent)
chain: FSFRYQQELEEEIKELYENFCKHN
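Also: lentivirally expressed fusions sorted by FACS into six bins by GFP to DsRed ratio, PSI derived from sequencing read proportions per bin multiplied by bin number.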

Variants of B1 are the subject of the data set. The data set is described as follows: protein stability index of a GFP-peptide fusion (GPS, HEK-293T) (PSI 1-6); higher = more stable. The settings on record: c terminus: a fixed tail appended.
On to FSFRYQQELEEEIKELVENFCKHN [Y17V], for which the protein stability index was 3.33. Then FSFRYQQELEEEIKELGENFCKHN [Y17G], with 4.22; and FSFRYQQELEEEIKELQENFCKHN [Y17Q], with 4.02. FSFRYQQELEEEIKELFENFCKHN [Y17F]: the protein stability index worked out at 2.16. The result for FSFRYQQELEEEIKELMENFCKHN [Y17M] reads 2.68; that for FSFRYQQELEEEIKELSENFCKHN [Y17S], 3.49; that for FSFRYQQELEEEIKELEENFCKHN [Y17E], 3.97. In the case of FSFRYQQELEEEIKELWENFCKHN [Y17W], the protein stability index is 2.48. The result for FSFRYQQELEEEIKELIENFCKHN [Y17I] reads 2.92; that for FSFRYQQELEEEIKELTENFCKHN [Y17T], 3.76; that for FSFRYQQELEEEIKELHENFCKHN [Y17H], 3.05.

FSFRYQQELEEEIKELNENFCKHN [Y17N]: the protein stability index worked out at 3.09. Then FSFRYQQELEEEIKELPENFCKHN [Y17P], with 4.27; and FSFRYQQELEEEIKELRENFCKHN [Y17R], with 2.73; and FSFRYQQELEEEIKELDENFCKHN [Y17D], with 2.92. The result for FSFRYQQELEEEIKELAENFCKHN [Y17A] reads 3.16. Then FSFRYQQELEEEIKELLENFCKHN [Y17L], with 2.36; and FSFRYQQELEEEIKELKENFCKHN [Y17K], with 2.89. For FSFRYQQELEEEIKELCENFCKHN [Y17C], the protein stability index stood at 3.09.

Consider FSFRYQQELEEEIKELYENFCKDN [H23D], for which the protein stability index is 2.12. With FSFRYQQELEEEIKELYENFCKKN [H23K], the protein stability index stood at 3.21. In the case of FSFRYQQELEEEIKELYENFCKTN [H23T], the protein stability index was determined as 3.04. Then FSFRYQQELEEEIKELYENFCKYN [H23Y], with 2.49; and FSFRYQQELEEEIKELYENFCKQN [H23Q], with 2.75. Then FSFRYQQELEEEIKELYENFCKWN [H23W], with 2.14; and FSFRYQQELEEEIKELYENFCKIN [H23I], with 2.43. Then FSFRYQQELEEEIKELYENFCKEN [H23E], with 2.63. Turning to FSFRYQQELEEEIKELYENFCKMN [H23M], the protein stability index is 2.49. The result for FSFRYQQELEEEIKELYENFCKCN [H23C] reads 1.84; that for FSFRYQQELEEEIKELYENFCKNN [H23N], 2.3. The result for FSFRYQQELEEEIKELYENFCKSN [H23S] reads 2.1; that for FSFRYQQELEEEIKELYENFCKRN [H23R], 1.86. In the case of FSFRYQQELEEEIKELYENFCKFN [H23F], the protein stability index worked out at 2.19. Turning to FSFRYQQELEEEIKELYENFCKPN [H23P], the protein stability index amounted to 1.6. On to FSFRYQQELEEEIKELYENFCKGN [H23G], for which the protein stability index amounted to 2.04. The result for FSFRYQQELEEEIKELYENFCKLN [H23L] reads 2.73; that for FSFRYQQELEEEIKELYENFCKAN [H23A], 2.25. Turning to FSFRYQQELEEEIKELYENFHKHN [C21H], the protein stability index amounted to 2.18. The result for FSFRYQQELEEEIKELYENFFKHN [C21F] reads 2.1. For the variant FSFRYQQELEEEIKELYENFDKHN [C21D], the protein stability index worked out at 3.33. As for FSFRYQQELEEEIKELYENFMKHN [C21M], the protein stability index was found to be 2.32. Consider FSFRYQQELEEEIKELYENFKKHN [C21K], for which the protein stability index stood at 2.66. Then FSFRYQQELEEEIKELYENFQKHN [C21Q], with 3.08; and FSFRYQQELEEEIKELYENFYKHN [C21Y], with 1.77; and FSFRYQQELEEEIKELYENFIKHN [C21I], with 2.05.

FSFRYQQELEEEIKELYENFWKHN [C21W]: the protein stability index was 2.31. Then FSFRYQQELEEEIKELYENFTKHN [C21T], with 1.97.

For the variant FSFRYQQELEEEIKELYENFSKHN [C21S], the protein stability index was determined as 2.48. For the variant FSFRYQQELEEEIKELYENFLKHN [C21L], the protein stability index was 2.13. The result for FSFRYQQELEEEIKELYENFRKHN [C21R] reads 2.46; that for FSFRYQQELEEEIKELYENFPKHN [C21P], 2.11; that for FSFRYQQELEEEIKELYENFNKHN [C21N], 2.58. On to FSFRYQQELEEEIKELYENFAKHN [C21A], for which the protein stability index stood at 3.33. In the case of FSFRYQQELEEEIKELYENFGKHN [C21G], the protein stability index was 2.55. Consider FSFRYQQELEEEIKELYENFVKHN [C21V], for which the protein stability index turned out to be 2.62. Regarding FSFRYQQELEEEIKELYENFEKHN [C21E], the protein stability index was 3.12. Regarding FSFRYQQELEEEIKELYENQCKHN [F20Q], the protein stability index was 2.55. Then FSFRYQQELEEEIKELYENRCKHN [F20R], with 2.8.

In the case of FSFRYQQELEEEIKELYENNCKHN [F20N], the protein stability index is 2.61. Then FSFRYQQELEEEIKELYENACKHN [F20A], with 2.83; and FSFRYQQELEEEIKELYENWCKHN [F20W], with 1.9; and FSFRYQQELEEEIKELYENHCKHN [F20H], with 2.73. Consider FSFRYQQELEEEIKELYENTCKHN [F20T], for which the protein stability index came out at 2.41.

Regarding FSFRYQQELEEEIKELYENECKHN [F20E], the protein stability index was found to be 3.58. Take FSFRYQQELEEEIKELYENCCKHN [F20C]: the protein stability index came out at 2.66. For FSFRYQQELEEEIKELYENLCKHN [F20L], the protein stability index was determined as 2.19.

Regarding FSFRYQQELEEEIKELYENMCKHN [F20M], the protein stability index came out at 2.17. Then FSFRYQQELEEEIKELYENDCKHN [F20D], with 2.62. Take FSFRYQQELEEEIKELYENSCKHN [F20S]: the protein stability index is 3.01. As for FSFRYQQELEEEIKELYENGCKHN [F20G], the protein stability index was found to be 2.81. Take FSFRYQQELEEEIKELYENPCKHN [F20P]: the protein stability index came to 2.5. Take FSFRYQQELEEEIKELYENVCKHN [F20V]: the protein stability index stood at 2.02. The result for FSFRYQQELEEEIKELYENYCKHN [F20Y] reads 2.38; that for FSFRYQQELEEEIKELYENKCKHN [F20K], 2.81. For the variant FSFRYQQELEEEIKELYENICKHN [F20I], the protein stability index was 1.71. The result for FSFRYQQELEEEIKELYEMFCKHN [N19M] reads 1.66; that for FSFRYQQELEEEIKELYERFCKHN [N19R], 2.31.

With FSFRYQQELEEEIKELYEKFCKHN [N19K], the protein stability index came out at 1.92. The result for FSFRYQQELEEEIKELYEEFCKHN [N19E] reads 2.06; that for FSFRYQQELEEEIKELYEYFCKHN [N19Y], 1.89. Then FSFRYQQELEEEIKELYEFFCKHN [N19F], with 1.72; and FSFRYQQELEEEIKELYEAFCKHN [N19A], with 2.28; and FSFRYQQELEEEIKELYEWFCKHN [N19W], with 1.73.

In the case of FSFRYQQELEEEIKELYEDFCKHN [N19D], the protein stability index worked out at 1.44. As to FSFRYQQELEEEIKELYEGFCKHN [N19G], the protein stability index turned out to be 1.73. The result for FSFRYQQELEEEIKELYEVFCKHN [N19V] reads 1.81; that for FSFRYQQELEEEIKELYELFCKHN [N19L], 1.98; that for FSFRYQQELEEEIKELYESFCKHN [N19S], 2.41. Then FSFRYQQELEEEIKELYEPFCKHN [N19P], with 2.16. With FSFRYQQELEEEIKELYEHFCKHN [N19H], the protein stability index stood at 1.97.

As to FSFRYQQELEEEIKELYEIFCKHN [N19I], the protein stability index turned out to be 2.04.

With FSFRYQQELEEEIKELYETFCKHN [N19T], the protein stability index stood at 1.99. Regarding FSFRYQQELEEEIKELYECFCKHN [N19C], the protein stability index worked out at 2.02.

In the case of FSFRYQQELEEEIKELYEQFCKHN [N19Q], the protein stability index was found to be 2.04.

Source of the values: the supplement of paper PMC10567573.
